The values below come from patent US9669118B2, “Method of labelling a biologically active molecule with 5-fluoro-5-deoxypentose or a 3-fluoro-3-deoxypentose” (UNIVERSITY COURT OF THE UNIVERSITY OF ST. ANDREWS, priority 2011, dated 2017).

Each structure is given as a SMILES string. Some results are limits rather than exact numbers.

A short description of this data set: Stability study of the conjugate in phosphate-buffered saline. The data set is classed as physicochemical. As to conditions: 37° C. As to the method:
A stability study confirmed that the conjugate 4a is stable in phosphate-buffered saline (PBS) at least for 8 hours at 37° C., which is stable enough for PET applications.

Regarding `N[C@@H](CCC(=O)N[C@@H](CSC1CC(=O)N(CCCCCCON=C[C@H](O)[C@H](O)[C@H](O)CF)C1=O)C(=O)NCC(=O)O)C(=O)O` (stereo partly shown) [conjugate 4a], the “stable in phosphate-buffered saline (PBS)” value was at least 8 h.
